Laboratory results: patent US20190367619A1 (ARGENX, published 2019)
Read-outs that look alike come from different tables or passages of the source.

T1: human galectin-10-His (recombinant human galectin-10 with TEV-cleavable N-terminal His-tag) (human)
T1 construct: SEC-MALLS: dimer in solution; also called Gal10-His; humanGal10-His
T1 chain: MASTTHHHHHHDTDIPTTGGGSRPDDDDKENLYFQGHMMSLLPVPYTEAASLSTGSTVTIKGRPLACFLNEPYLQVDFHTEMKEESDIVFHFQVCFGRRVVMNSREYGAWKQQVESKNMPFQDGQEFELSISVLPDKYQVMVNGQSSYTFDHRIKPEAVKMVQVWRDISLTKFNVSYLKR

T2: cynomolgus galectin-10-His, WGS isoform (cynomolgus)
T2 construct: not shown: His tag
T2 chain: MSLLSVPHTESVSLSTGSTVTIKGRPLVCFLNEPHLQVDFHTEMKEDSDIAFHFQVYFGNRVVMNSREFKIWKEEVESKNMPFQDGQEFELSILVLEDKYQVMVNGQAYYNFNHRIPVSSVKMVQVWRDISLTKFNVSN

T3: cynomolgus galectin-10-His, YRT isoform (cynomolgus)
T3 construct: not shown: His tag
T3 chain: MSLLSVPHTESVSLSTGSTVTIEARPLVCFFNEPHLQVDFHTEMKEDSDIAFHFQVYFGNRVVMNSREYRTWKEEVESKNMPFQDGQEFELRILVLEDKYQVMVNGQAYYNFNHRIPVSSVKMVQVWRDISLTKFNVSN

T4: TEV-cleaved wild-type recombinant human galectin-10 (soluble, in Fab complexes, or as recombinant galectin-10 … (human, UniProt Q05315 1-142))
T4 sequence: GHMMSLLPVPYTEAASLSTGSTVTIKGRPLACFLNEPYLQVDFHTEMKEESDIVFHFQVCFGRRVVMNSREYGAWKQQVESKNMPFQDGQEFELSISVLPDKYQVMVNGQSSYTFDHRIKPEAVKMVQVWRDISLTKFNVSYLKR


How the values were obtained:
[1] = target: TEV-cleaved wild-type recombinant human galectin-10 (soluble, in Fab complexes, or as recombinant galectin-10 crystals / CLCs) (human) (UniProt Q05315); assay: cell-based or functional assay
[2] = target: human galectin-10-His (recombinant human galectin-10 with TEV-cleavable N-terminal His-tag) (human); assay: ELISA, scFv-hFc on coated galectin-10-His (0.2 ug/mL)
[3] = target: T1, human galectin-10-His (recombinant …); assay: as above
Experimental: In a similar setup to that used during the initial screening, the relative binding properties of the 12 scFv-human Fc clones were analyzed by ELISA. Briefly, a Maxisorp plate was coated with galectin-10-His at 0.2 μg/mL and blocked with casein, before being incubated with a serial dilution of the scFv-human Fc fusion molecules. After several washing steps, detection of the bound scFv-human Fc was carried out with an anti-human Fc-HRP antibody. Absorbance was measured at 450 nm (reference at 620 nm) with Tecan instrument. Finally, the raw data (OD values) were plotted on GraphPad Prism 7.01. The EC50 value of each compound was calculated with a non-linear regression (log(agonist) vs. response Variable slope (four parameters)).

[4] = target: T1, human galectin-10-His (recombinant …); assay: SPR Biacore T3000, scFv-hFc captured by anti-human Fc, galectin-10-His as analyte
[5] = target: T1, human galectin-10-His (recombinant …); assay: as above
Experimental: (§1) In order to determine the binding properties (on-rate/off-rate) of the scFv-human Fc panel, their binding capacity to galectin-10 was analyzed on Biacore T3000. For this purpose, a capture approach was set up. A CM5 Chip was coated with polyclonal anti-human Fc at 8000 RU, then a fixed concentration of the scFv-human Fc panel (1.5 μg/mL), diluted in HBS-EP pH7.4, were captured to reach a binding signal around 150 RU. Finally, a serial dilution of galectin-10-His (serial dilution, 1 over 2 from 5 μg/mL, 6 points of dilution) diluted in HBS-EP pH7.4 was injected. Raw data were analyzed via BIA evaluation software with a blank subtraction (4-3). The kd/KD and Rmax of each scFv-human Fc for galectin-10-His was determined using the Fit Kinetics simultaneous ka/kd/Binding with mass transfer/Local Rmax on BIA evaluation software.

[6] = target: T2, cynomolgus galectin-10-His, WGS isoform; assay: ELISA, VHH on coated cynomolgus WGS galectin-10-His (1 ug/mL)
[7] = target: T3, cynomolgus galectin-10-His, YRT isoform; assay: ELISA, VHH on coated cynomolgus YRT galectin-10-His (1 ug/mL)
[8] = target: T4, TEV-cleaved wild-type recombinant human …; assay: cell-based or functional assay
[9] = target: T4, TEV-cleaved wild-type recombinant human …; assay: cell-based or functional assay; remark: listed apart in the source
[10] = target: T4, TEV-cleaved wild-type recombinant human …; assay: cell-based or functional assay; remark: listed apart in the source
[11] = target: T1, human galectin-10-His (recombinant …); assay: ELISA binding (summary table), scFv-human Fc
[12] = target: T1, human galectin-10-His (recombinant …); assay: Biacore capture approach (summary table), scFv-human Fc
Experimental: as §1

| Molecule | Bmax (OD values) [3] [OD] | EC50 [3] [nM] | Kd [4] [nM] | Kd [5] [nM] | koff [5] [s⁻¹] | other results |
| --- | --- | --- | --- | --- | --- | --- |
| Isotype control, scFv-human Fc (irrelevant scFv-human Fc) (Fc fusion) |  |  |  |  |  | CLC formation (crystallization robot assay) [1]: 100%; Bmax (OD values) [2]: 0.018 OD |
| 6A11 scFv-human Fc (Fc fusion, about 100 kDa on SDS-PAGE; also called 6A11 ScFv-hFc; not shown: CH2-CH3 constant domains of human IgG1 (vector pUPEX50)) scFv: ELQLVESGGGLVQPGGSLRLSCSASGFTFGAYAMNWVRQAPGKGLEWVSGVNSGGGLTSYGESVKGRFTISRDNAKNTLYLQMNRLNPDDTAVYYCAKSKRGAVVAGTGDDYWGQGTQVTVSSGGGGSGGGGSGGGGSSSALTQPSAVSVSLGQTARITCQGGNFGRYYVSWYQQKPGQAPVLVIYKDSERPSGIPERFSGSSSGDTATLTISGAQAEDEADYYCQSGSSSDNAVFGGGTHLTVL | 1.59 | 0.01 | > 17 | 0.711 | 0.124 |  |
| VHH 1D06 (purified, Myc-His tagged) (VHH, not shown: small tags and cut ends, also called 1D6) VHH: QLQLVESGGGLVQPGGSLRLSCAASENSVSTYAMGWFRQAPGKEREFVAAITRAGGNTYNADSVKGRFTISRDNAENTIYLQMNSLKPEDTAVYSCAAGPRYSTISTMFPYWGQGTQVTVSS |  |  |  |  |  | binding result [6]: no binding; binding result [7]: no binding |
| 6F11 scFv-human Fc (Fc fusion, about 100 kDa on SDS-PAGE; also called 6F11 ScFv-hFc; not shown: CH2-CH3 constant domains of human IgG1 (vector pUPEX50)) scFv: QVQRQESGPGLVKPSQTLSVTCTVSGGSITTGPYSWSWIRQPPGKGLEWIGYIGYSGSTYYSPSLKSRTSISRDTSNNQFSLQLSSVTPEDTAVYYCARSRSSPTTFGMDYWGKGTLVTVSSGGGGSGGGGSGGGGSSSALTQPSAVSVSLGQTARITCQGGDFGRYYVAWYTQKPGQAPVLVIYQDSERPSGIPERFSGSSSGDTATLTISGAQAEDEAEYYCQSGISSDNIVFGGGTHLTVL | 1.56 | 0.48 | > 17 | 2.96 | 0.0172 |  |
| 6F05 scFv-human Fc (Fc fusion, about 100 kDa on SDS-PAGE; also called 6F5; 6F05 ScFv-hFc; not shown: CH2-CH3 constant domains of human IgG1 (vector pUPEX50)) scFv: QLQLVESGGGLVQPGGSLRLSCAASGFTFSSYAMSWVRQAPGKGLEWVSAINSGGGSTSYADSVKGRFTISRDNAKNTLYLQMNSLKPEDTAVYYCATPGDRLWYYRYDYWGQGTQVTVSSGGGGSGGGGSGGGGSQAGLTQPPSVSGTLGKAVTISCAGTSSDIGYGNYVSWYQQLPGTAPKLLIYKVSRRASGVPDRFSGSKSGNTASLSISGLQSEDEADYYCASYRYRNNVVFGGGTHLTVL | 2.9 | 0.02 |  | 0.918 | 0.000117 | dissolution of in vitro grown Gal10 crystals (spinning disk confocal microscopy) [8]: ≤ 90 min; 100% Solubilization of CLC (Conc uM) [9]: 4 µM; 100% Inhibition of CLC formation (Conc uM) [10]: 1 µM; 100% Solubilization of CLC (Conc uM) [10]: 4 µM; EC50 [11]: 0.02 nM; Kd [12]: 0.9 nM; koff [12]: 0.00012 s⁻¹ |
